The labels stand for the following.
B1: 2xGLP-1 (7-37) A8G DOM7h-14 dAb fusion (DAT0114) (other)
chain: HGEGTFTSDVSSYLEGQAAKEFIAWLVKGRHGEGTFTSDVSSYLEGQAAKEFIAWLVKGRDIQMTQSPSSLSASVGDRVTITCRASQWIGSQLSWYQQKPGKAPKLLIMWRSSLQSGVPSRFSGSGSGTDFTLTISSLQPEDFATYYCAQGAALPRTFGQGTKVEIKA
notes: also called 2xGLP-1 (7-37) A8G DOM7h-14 fusion; 2xGLP-1 A8G DOM7h-14 fusion
B2: GLP-1 (7-37) A8G, helical linker, DOM7h-14 dAb fusion (DAT0120) (other)
chain: HGEGTFTSDVSSYLEGQAAKEFIAWLVKGRGKEAAAKEAAAKEAAAKELAAKEAAAKEAAAKEAAAKELAADIQMTQSPSSLSASVGDRVTITCRASQWIGSQLSWYQQKPGKAPKLLIMWRSSLQSGVPSRFSGSGSGTDFTLTISSLQPEDFATYYCAQGAALPRTFGQGTKVEIKR
notes: also called GLP-1 A8G, helical linker, DOM7h-14 fusion; GLP-1 (7-37) A8G, helical linker, DOM7h-14 fusion
B3: Rat serum albumin (other, UniProt P02770 25-608, looked up)
chain: EAHKSEIAHRFKDLGEQHFKGLVLIAFSQYLQKCPYEEHIKLVQEVTDFAKTCVADENAENCDKSIHTLFGDKLCAIPKLRDNYGELADCCAKQEPERNECFLQHKDDNPNLPPFQRPEAEAMCTSFQENPTSFLGHYLHEVARRHPYFYAPELLYYAEKYNEVLTQCCTESDKAACLTPKLDAVKEKALVAAVRQRMKCSSMQRFGERAFKAWAVARMSQRFPNAEFAEITKLATDVTKINKECCHGDLLECADDRAELAKYMCENQATISSKLQACCDKPVLQKSQCLAEIEHDNIPADLPSIAADFVEDKEVCKNYAEAKDVFLGTFLYEYSRRHPDYSVSLLLRLAKKYEATLEKCCAEGDPPACYGTVLAEFQPLVEEPKNLVKTNCELYEKLGEYGFQNAVLVRYTQKAPQVSTPTLVEAARNLGRVGTKCCTLPEAQRLPCVEDYLSAILNRLCVLHEKTPVSEKVTKCCSGSLVERRPCFSALTVDETYVPKEFKAETFTFHSDICTLPDKEKQIKKQTALAELVKHKPKATEDQLKTVMGDFAQFVDKCCKAADKDNCFATEGPNLVARSKEALA
notes: also called RSA

One experiment has as its target T1, Mouse serum albumin (mouse, UniProt P07724 25-608).
T1 construct: also called MSA
The experiment is described as follows: SPR (Biacore), albumin immobilised on CM5 chip, fusion in solution. Background: Surface plasmon resonance follows binding to a sensor surface in real time, without labels.

Another experiment deals with T2, Human serum albumin (human, UniProt P02768 25-609).
T2 construct: also called HSA
The description is as above.

The experiment “Rat serum albumin” addresses B3. The description is as above.
Method: (§1) The analysis was performed using a CMS Biacore chip (carboxymethylated dextran matrix) that was coated with serum albumin. About 1000 resonance units (RUs) of each serum albumin to be tested (human, rat and mouse serum albumin) was immobilised in acetate buffer pH 5.5. […] Affinity (KD) was calculated from the BIACORE traces by fitting on-rate and off-rate curves to traces generated by concentrations of dAb in the region of the KD.
Experiment [1] addresses T3, Exendin 4 (G4S linker)3 DOM7h-14 dAb fusion (DAT0115).
T3 construct: also called Exendin 4 (G4S)3 DOM7h-14 fusion
The experiment is described as follows: SPR (Biacore), biotinylated albumin on streptavidin chip, fusion in solution.
Method: The analysis was performed using a streptavidin chip (SA) coated with biotinylated serum albumin. 200-1000 resonance units (RUs) of each serum albumin was immobilised on the chip. Flow cell 1 was uncoated, flow cell 2 was coated with HSA, flow cell 3 was coated with RSA and flow cell 4 was coated with CSA.
Affinity (KD) was calculated from the BIACORE traces by fitting on-rate and off-rate curves to traces generated by concentrations of dAb in the region of the KD.

T1 sequence (P07724 25-608 limits assumed): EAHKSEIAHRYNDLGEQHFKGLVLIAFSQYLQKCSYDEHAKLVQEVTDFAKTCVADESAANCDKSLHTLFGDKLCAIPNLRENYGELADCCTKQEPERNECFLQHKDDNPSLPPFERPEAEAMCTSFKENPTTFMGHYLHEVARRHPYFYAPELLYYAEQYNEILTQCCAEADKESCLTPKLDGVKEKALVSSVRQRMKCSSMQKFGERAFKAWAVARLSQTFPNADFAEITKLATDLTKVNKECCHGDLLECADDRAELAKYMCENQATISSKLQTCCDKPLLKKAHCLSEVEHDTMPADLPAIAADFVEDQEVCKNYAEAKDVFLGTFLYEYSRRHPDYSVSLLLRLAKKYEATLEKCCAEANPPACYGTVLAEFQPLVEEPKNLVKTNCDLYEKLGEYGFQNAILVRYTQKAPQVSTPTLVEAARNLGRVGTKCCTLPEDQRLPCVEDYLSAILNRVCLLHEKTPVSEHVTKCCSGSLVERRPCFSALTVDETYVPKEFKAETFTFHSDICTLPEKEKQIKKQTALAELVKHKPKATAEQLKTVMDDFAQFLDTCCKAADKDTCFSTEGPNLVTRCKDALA
Method for Human serum albumin: as §1
Method for Mouse serum albumin: as §1

In the case of B1, the results for the Kd in the experiment with Mouse serum albumin, with Human serum albumin and with Rat serum albumin were 130 nM, 150 nM and 700 nM, respectively.
For B2, the figures for the Kd with Mouse serum albumin, with Human serum albumin and with Rat serum albumin were 110 nM, 110 nM and 800 nM, respectively.
For the molecule B3, the Kd (commonly the equilibrium constant for the complex coming apart) in experiment [1] came out at 2000 nM.

These data come from patent publication US20130189255A1 (GlaxoSmithKline, published 2013).
